The values below come from patent US20200078441A1 (TAIPEI VETERANS GENERAL HOSPITAL, published 2020).

B1: PepSpot array peptide 22 (peptide)
peptide: ELYGAANQDSGVSSY
notes: 15-mer of the MSI1 C-terminus spotted on the PepSpot membrane; also called Index 22
B2: PepSpot array peptide 13 (peptide)
peptide: SAPVLPELTAIPLTA
notes: 15-mer of the MSI1 C-terminus spotted on the PepSpot membrane; also called Index 13
B3: PepSpot array peptide 16 (peptide)
peptide: AAAAAAVVRGTGSHP
notes: 15-mer of the MSI1 C-terminus spotted on the PepSpot membrane; also called Index 16
B4: PepSpot array peptide 15 (peptide)
peptide: AYGPMAAAAAAAAVV
notes: 15-mer of the MSI1 C-terminus spotted on the PepSpot membrane; also called Index 15
B5: PepSpot array peptide 12 (peptide)
peptide: VERTPLPSAPVLPEL
notes: 15-mer of the MSI1 C-terminus spotted on the PepSpot membrane; also called Index 12
B6: PepSpot array peptide 21 (peptide)
peptide: TSPGPMAELYGAANQ
notes: 15-mer of the MSI1 C-terminus spotted on the PepSpot membrane; also called Index 21
B7: PepSpot array peptide 23 (peptide)
peptide: QDSGVSSYISAASPA
notes: 15-mer of the MSI1 C-terminus spotted on the PepSpot membrane; also called Index 23
B8: PepSpot array peptide 14 (peptide)
peptide: LTAIPLTAYGPMAAA
notes: 15-mer of the MSI1 C-terminus spotted on the PepSpot membrane; also called Index 14

The target in this assay is T1, recombinant His-tagged AGO2 protein (human Argonaute 2, baculovirus-expressed) (human, UniProt Q9UKV8 1-859).
T1 construct: Expressed in High Five insect cells and purified on nickel resin; also called His-AGO2; HisAGO2
T1 sequence (Q9UKV8 other isoform, or with tags, fused parts or gaps limits assumed): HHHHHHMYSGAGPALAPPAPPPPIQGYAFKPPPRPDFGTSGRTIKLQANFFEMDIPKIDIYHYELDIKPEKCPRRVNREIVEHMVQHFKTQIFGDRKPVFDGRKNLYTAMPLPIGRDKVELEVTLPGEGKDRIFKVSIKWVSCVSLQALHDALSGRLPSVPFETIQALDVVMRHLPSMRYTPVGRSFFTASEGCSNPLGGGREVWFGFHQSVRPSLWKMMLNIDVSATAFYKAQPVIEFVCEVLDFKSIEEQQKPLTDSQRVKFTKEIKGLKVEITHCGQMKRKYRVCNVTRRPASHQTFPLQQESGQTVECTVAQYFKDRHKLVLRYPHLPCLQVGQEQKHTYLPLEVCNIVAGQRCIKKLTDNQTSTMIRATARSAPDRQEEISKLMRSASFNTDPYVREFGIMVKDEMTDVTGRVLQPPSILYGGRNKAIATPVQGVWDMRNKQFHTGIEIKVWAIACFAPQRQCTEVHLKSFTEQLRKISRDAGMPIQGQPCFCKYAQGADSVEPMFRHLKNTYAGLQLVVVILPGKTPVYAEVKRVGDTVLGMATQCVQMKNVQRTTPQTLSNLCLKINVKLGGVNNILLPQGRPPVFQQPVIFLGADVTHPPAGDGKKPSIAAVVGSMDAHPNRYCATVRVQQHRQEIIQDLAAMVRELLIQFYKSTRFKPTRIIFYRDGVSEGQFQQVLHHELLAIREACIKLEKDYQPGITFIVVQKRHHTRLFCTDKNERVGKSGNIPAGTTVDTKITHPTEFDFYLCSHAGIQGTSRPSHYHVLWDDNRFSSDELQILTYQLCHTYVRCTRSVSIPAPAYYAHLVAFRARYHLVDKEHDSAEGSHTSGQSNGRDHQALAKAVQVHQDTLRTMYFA
Kind of assay: PepSpot peptide array incubated with recombinant His-tagged AGO2 (2 µg), detected with anti-His-HRP.
Method: The association rate constant (Kₐ), dissociation rate constant (Kd), and equilibrium dissociation constant (KD) were calculated and presented in the chart (bottom).
Turning to B1, the binding result is “no binding”.
As to B2, the binding result is “no binding”.
With B3, the binding result is “no binding”.
As to B4, the binding result was “no binding”.
As to B5, the binding result is on record as “no binding”.
Regarding B6, the binding result is “no binding”.
In the case of B7, the binding result was “no binding”.
Turning to B8, the binding result is on record as “no binding”.
